B1: Nuclear factor of activated T-cells, cytoplasmic 1 (Homo sapiens), O95644 (parent)
chain: MPSTSFPVPSKFPLGPAAAVFGRGETLGPAPRAGGTMKSAEEEHYGYASSNVSPALPLPTAHSTLPAPCHNLQTSTPGIIPPADHPSGYGAALDGGPAGYFLSSGHTRPDGAPALESPRIEITSCLGLYHNNNQFFHDVEVEDVLPSSKRSPSTATLSLPSLEAYRDPSCLSPASSLSSRSCNSEASSYESNYSYPYASPQTSPWQSPCVSPKTTDPEEGFPRGLGACTLLGSPRHSPSTSPRASVTEESWLGARSSRPASPCNKRKYSLNGRQPPYSPHHSPTPSPHGSPRVSVTDDSWLGNTTQYTSSAIVAAINALTTDSSLDLGDGVPVKSRKTTLEQPPSVALKVEPVGEDLGSPPPPADFAPEDYSSFQHIRKGGFCDQYLAVPQHPYQWAKPKPLSPTSYMSPTLPALDWQLPSHSGPYELRIEVQPKSHHRAHYETEGSRGAVKASAGGHPIVQLHGYLENEPLMLQLFIGTADDRLLRPHAFYQVHRITGKTVSTTSHEAILSNTKVLEIPLLPENSMRAVIDCAGILKLRNSDIELRKGETDIGRKNTRVRLVFRVHVPQPSGRTLSLQVASNPIECSQRSAQELPLVEKQSTDSYPVVGGKKMVLSGHNFLQDSKVIFVEKAPDGHHVWEMEAKTDRDLCKPNSLVVEIPPFRNQRITSPVHVSFYVCNGKRKRSQYQRFTYLPANVPIIKTEPTDDYEPAPTCGPVSQGLSPLPRPYYSQQLAMPPDPSSCLVAGFPPCPQRSTLMPAAPGVSPKLHDLSPAAYTKGVASPGHCHLGLPQPAGEAPAVQDVPRPVATHPGSPGQPPPALLPQQVSAPPSSSCPPGLEHSLCPSSPSPPLPPATQEPTCLQPCSPACPPATGRPQHLPSTVRRDESPTAGPRLLPEVHEDGSPNLAPIPVTVKREPEELDQLYLDDVNEIIRNDLSSTSTHS

Variants of: B1
Conditions: with jak3_human JAK3, P52333
Sequence of jak3_human JAK3, P52333 (P52333 whole entry): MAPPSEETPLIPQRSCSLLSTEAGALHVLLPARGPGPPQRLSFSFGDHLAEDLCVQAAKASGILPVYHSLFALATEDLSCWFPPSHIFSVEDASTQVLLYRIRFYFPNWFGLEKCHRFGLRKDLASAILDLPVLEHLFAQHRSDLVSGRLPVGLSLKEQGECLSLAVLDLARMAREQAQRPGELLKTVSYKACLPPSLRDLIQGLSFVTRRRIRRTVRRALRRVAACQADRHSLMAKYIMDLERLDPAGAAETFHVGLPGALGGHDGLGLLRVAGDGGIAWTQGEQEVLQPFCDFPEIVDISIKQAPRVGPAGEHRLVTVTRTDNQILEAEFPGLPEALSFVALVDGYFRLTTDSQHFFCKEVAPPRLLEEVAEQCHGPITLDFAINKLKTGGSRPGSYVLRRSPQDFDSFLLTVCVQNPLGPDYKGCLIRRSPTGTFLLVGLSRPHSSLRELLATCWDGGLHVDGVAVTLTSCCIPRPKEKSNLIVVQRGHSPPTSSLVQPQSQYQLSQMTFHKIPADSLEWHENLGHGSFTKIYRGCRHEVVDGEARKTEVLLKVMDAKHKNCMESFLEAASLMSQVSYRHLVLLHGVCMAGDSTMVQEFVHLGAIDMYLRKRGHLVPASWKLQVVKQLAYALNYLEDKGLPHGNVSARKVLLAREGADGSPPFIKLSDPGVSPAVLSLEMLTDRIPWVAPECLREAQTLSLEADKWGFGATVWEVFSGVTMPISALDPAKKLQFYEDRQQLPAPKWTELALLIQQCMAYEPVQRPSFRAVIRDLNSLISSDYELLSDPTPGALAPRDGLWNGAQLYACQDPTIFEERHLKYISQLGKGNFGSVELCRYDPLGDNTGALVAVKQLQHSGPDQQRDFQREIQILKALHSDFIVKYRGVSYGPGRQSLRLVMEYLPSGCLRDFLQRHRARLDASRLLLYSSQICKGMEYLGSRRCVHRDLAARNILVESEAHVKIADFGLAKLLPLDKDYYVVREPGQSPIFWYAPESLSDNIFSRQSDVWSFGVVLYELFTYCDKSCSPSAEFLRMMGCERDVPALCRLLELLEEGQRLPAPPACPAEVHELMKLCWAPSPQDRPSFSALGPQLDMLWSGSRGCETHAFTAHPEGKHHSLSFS

| effect of a mutation on the interaction | Variant |
| --- | --- |
| disrupting interaction | Y371A |
